Measurements from the supplement of paper PMC12042874.
± gives the uncertainty stated by the source.

assay: amyloid nucleation score (Sup35N fusion, yeast selection) (log enrichment); library NNK3; higher = more nucleation; inactive = no reads after selection
Procedure, shortened: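 Nucleation score is defined as the DiMSum log enrichment of output over input reads, with centring on the mode score of non-aggregating sequences. A minimum of 100 input reads was required for each sequence. Reads came from Illumina sequencing of plasmid inserts from psi-negative yeast expressing Sup35N fused to peptides of 20 random codons, induced with 100 μM copper sulfate for 24 hours and grown 7 days at 30°C on medium lacking adenine and uracil.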

Substance | amyloid nucleation score
RAYSLLVRQIVRCNESG | inactive
RAYSSWSLSSCRCNSDWTVG | inactive
RAYSYPSDYWW | -0.122 ± 0.43
RCDVRFSWLIPSGLE | 1.56 ± 0.086
RCFIDLCFLDIIISFRYY | inactive
RCGILW | inactive
RCGTLYRGG | inactive
RCGYHFHQVAFFTKDVKVVE | inactive
RCLEEP | 0.145 ± 0.34
RCLMDMFHILPKKSGVFSIT | inactive
RCNKRTEGVSE | inactive
RCNLTCLGMIDVTIS | inactive
RCSYLMRLYISSFMY | inactive
RCVGEACVNGGCLITITYVG | 1.16 ± 0.11
RDCDDQ | inactive
RDDGEALVTSARRVQTSYPA | -0.145 ± 0.93
RDDNAKNVGSPRAAHTRALR | inactive
RDEVLNSHFIVGSRMRSNVA | 1.31 ± 0.14
RDFATTNGRDNIELHSQGNY | inactive
RDGSQGEFWVLALARLGGTS | 0.311 ± 0.48
RDIMGLDLFQARNTTRSNYK | inactive
RDIQYLCKYLRSMMHRGQAH | inactive
RDNLLGLTGNTTGDFTPGTV | inactive

Substance | amyloid nucleation score
RDPFITFWYMRIYTTGRGCV | inactive
RDRWI | inactive
RDVMWVNHVYCMLEFWTWVV | inactive
RDYILKT | inactive
RDYKAHYLRCLYLWTMSLP | inactive
RECSNSVVLFLDVTHRVVRT | inactive
REGCHPFELSDPDGDHLVRF | inactive
REMKWRLELLVGGKYRYHQL | inactive
REVELSNVYYNDVSACLHKK | -0.378 ± 1.4
REVRTGLNLIPRRIVSNHTF | inactive
REVYLMRSEPWRLLFDGKYR | inactive
RFDDRG | inactive
RFIDWQVCD | inactive
RFIWIGIWKEGEGLADYSEK | inactive
RFKYPPTFKMNSSSFFQSLL | inactive
RFLLDRACLWLRGVI | inactive
RFLLYPAPWRVFAIPYSEHL | inactive
RFLSMSTLKRDS | inactive
RFMWSLGSTLRWKAWADVTG | inactive
RFRNYGLSGR | -0.38 ± 0.89
RFSMNASYFYYVIMFSDCYS | inactive
RFSNAMLMCLVTNVSC | 0.451 ± 0.61
RFWKTTPNGQIRVSSVMRCM | inactive

Substance | amyloid nucleation score
RFYNDW | inactive
RFYSARGGKRARIHVRVKWD | -0.446 ± 0.55
RGATC | inactive
RGCKKLYRIKANVMYVSTVN | inactive
RGITMCMSVL | inactive
RGLWLEQRAVNNYVGR | -0.291 ± 0.46
RGMISVMPSVIGPAL | inactive
RHDCIYRKV | inactive
RHGFALRLVHSSL | inactive
RHGLAWTYVKKSKMRTAAGR | inactive
RHLLLTGKSWCVQACPGRTV | -0.965 ± 1.1
RIIIVYR | inactive
RILLFMHPMSICMSP | inactive
RILPYSGSALLISTGFYHR | inactive
RIMWSRRVENVL | inactive
RIPLWCFS | inactive
RIPSGFTL | inactive
RIVEGMYLYVLS | inactive
RKARRGCYVFLPKFSNVEFH | 1.03 ± 0.12
RKCRCYLTSFKDPALYLT | inactive
RKERGSVFGSIWQFSCIRR | 0.731 ± 0.25
RKFAGYQSSNASGSPVQGMS | inactive
RKGHDVVAVYWADLHSSGIV | inactive

Substance | amyloid nucleation score
RKLNNTSTSHGICVGAWITN | inactive
RKMFWDGF | inactive
RKNAVCICSNL | inactive
RKSIGSLG | inactive
RKSSSVRFFEHCVVSDVWLV | inactive
RKYCYGMSLFTDMTMLVRRK | inactive
RLATREDHAHLLDHACLVG | inactive
RLATYALSFPSS | inactive
RLGEGKCTPYQWFVSNSTSN | -0.166 ± 0.66
RLGFDITKITWCGIYFAGWV | inactive
RLGFF | inactive
RLGRLTPKMISYRKVWKYWG | inactive
RLGTMVVDLVERARIEGDVF | inactive
RLHFCVGPMAPYSMEQSQ | inactive
RLINKYWSPNPMLRKFR | 1.09 ± 0.11
RLINVMVCYLLEGCQGLLL | 1.67 ± 0.1
RLKNHSGCIILNRCVSRGRI | inactive
RLNAYMCLEMVTLSTRKHVG | 1.79 ± 0.079
RLNRVGNFIAGHLIGA | inactive
RLPPDSQMPSFYCCVDL | -0.144 ± 1.1
RLQPFVHFVYCWESIVVCMW | 1.56 ± 0.068
RLSLFRGKCRVYYYTGSIQV | inactive
RLVCCKSHPFDVRYF | inactive

Substance | amyloid nucleation score
RLVYPSVSSLKPIRSCWLG | inactive
RLYLESVYYFLSRAHRLSID | inactive
RLYNTIFPSKKIWYKKLEGC | inactive
RLYRRSCVSSR | inactive
RMCGSCYLCYCRERRGYTAF | inactive
RMDLEIVLNILHSGMS | inactive
RMFNSYNQFLLVAMLPYPLR | 2.62 ± 0.071
RMRSMRSMF | inactive
RMSRNMWFWLRLNSNYIVFS | inactive
RMTMFRTEAAVVKRSVSTVV | inactive
RMVHS | 1.62 ± 0.091
RMVPKMSVCS | inactive
RNEDLSA | -0.096 ± 0.66
RNHIALSLGWIQEDVIGSWN | 0.991 ± 0.13
RNIELSAPLFWSAAASDVVK | inactive
RNISRS | inactive
RNKRLKLILYLHRVDEAVAE | inactive
RNNDDSVLMDMLCMKCRTWL | inactive
RNPDLVVKSQGVNRWGDSRC | inactive
RNSLFLLPSTCSVYIWCFS | 2.8 ± 0.081
RNSVIWNRLYRMRWV | inactive
RNWKSYRYAVGRCDMGSELL | inactive
RNYNVV | inactive

Substance | amyloid nucleation score
RPQSLVYRFISYHRLYYLYR | inactive
RPSSQVYGRWEIYIKYL | inactive
RPVVWYISRTSVVLDCAWGS | inactive
RPYGSEVVIFMSVSRKPPPA | 0.661 ± 0.14
RQHGMLCSRSTRMVLFKS | inactive
RQHMDGVVDI | inactive
RQLMIDAQSVYKCCGQPW | inactive
RQNPGLGFLNFFLMV | 0.258 ± 0.35
RQVVRSTLRLSWSIFLYSYM | inactive
RRFVFVYINVPC | inactive
RRFVVGYRDLMMRFIVRHGE | 0.403 ± 0.24
RRGVRPNATMSA | inactive
RRKLRGALTVEMVFSPVYRR | inactive
RRMLNAVEMSYRVGKFSFCW | inactive
RRNDRYVCFAMMSRRSGVYL | inactive
RRNYRSFKDLLFHDYTFMDS | inactive
RRRVSKANPGDVMIWSVIAK | inactive
RRSSARGIRYMYSLNCNGEL | inactive
RRVTRSSKAYRVGVSWDGIG | 0.047 ± 0.33
RRWQVCVAGQDSEGTVKVML | 0.108 ± 0.56
RRYDNYRYSHRMFFKRFQAV | inactive
RRYSRVKVRRLFMRNNLMLN | 0.283 ± 0.15
RRYVDRYEAIWWCFCIRKLF | inactive

Substance | amyloid nucleation score
RSAFYHNVGGKNRVSWSIL | inactive
RSCCLQPT | inactive
RSFFSWAMNMRGLARWAWME | 1.78 ± 0.11
RSFHYRIACESNLAVEVHFR | 1.74 ± 0.066
RSGLHVEGLRSLHRGKVGPC | inactive
RSGWCHLPQVRNMWTVIIDG | -0.648 ± 1.1
RSHECGGSLMFVKLGCG | inactive
RSHLWGRLASYAMGTHAG | inactive
RSHQKEMCVNFNLPVNFSHR | inactive
RSHRIF | inactive
RSILRNSLSTQMHIGSVSLM | inactive
RSLVCRFLTGTDMVCGIGVT | inactive
RSLYASLCVRIFDGLYCCMK | inactive
RSMHLTWYW | 1.4 ± 0.11
RSMNLRSKLMSACGGFMS | inactive
RSNLRLGSRDKPAIQL | inactive
RSNTPPGISLARPFYPKNRV | inactive
RSNWPSTILTSWSARCHWLS | inactive
RSPEFCMS | inactive
RSQDNCR | inactive
RSRAFGDGKNWMHCRRYVM | inactive
RSSFKG | inactive
